From US20170158747A1 (Novartis, published 2017)

What was measured:
Assay in all cases: cell-based or functional assay
[1] = molecular target: T1, cynomolgus monkey IL10 receptor on cynomolgus whole blood cells (cynomolgus monkey, UniProt A0A2K5WJ66 22-576; A0A7N9D6W2 20-323)
T1 sequence 1: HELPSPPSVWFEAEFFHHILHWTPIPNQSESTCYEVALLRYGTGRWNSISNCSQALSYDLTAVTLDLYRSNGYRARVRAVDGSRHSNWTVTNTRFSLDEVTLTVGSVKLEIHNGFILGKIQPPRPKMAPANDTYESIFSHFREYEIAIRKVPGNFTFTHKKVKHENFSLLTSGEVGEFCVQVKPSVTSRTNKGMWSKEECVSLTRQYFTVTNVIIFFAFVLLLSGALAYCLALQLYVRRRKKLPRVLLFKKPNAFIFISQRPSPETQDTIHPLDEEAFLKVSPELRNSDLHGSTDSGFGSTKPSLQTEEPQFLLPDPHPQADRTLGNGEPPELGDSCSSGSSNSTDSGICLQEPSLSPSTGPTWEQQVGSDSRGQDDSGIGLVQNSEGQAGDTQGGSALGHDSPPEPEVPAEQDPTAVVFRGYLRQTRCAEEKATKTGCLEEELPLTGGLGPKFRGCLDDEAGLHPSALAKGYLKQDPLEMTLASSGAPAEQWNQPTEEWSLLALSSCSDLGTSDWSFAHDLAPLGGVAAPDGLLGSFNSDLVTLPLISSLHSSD
T1 sequence 2: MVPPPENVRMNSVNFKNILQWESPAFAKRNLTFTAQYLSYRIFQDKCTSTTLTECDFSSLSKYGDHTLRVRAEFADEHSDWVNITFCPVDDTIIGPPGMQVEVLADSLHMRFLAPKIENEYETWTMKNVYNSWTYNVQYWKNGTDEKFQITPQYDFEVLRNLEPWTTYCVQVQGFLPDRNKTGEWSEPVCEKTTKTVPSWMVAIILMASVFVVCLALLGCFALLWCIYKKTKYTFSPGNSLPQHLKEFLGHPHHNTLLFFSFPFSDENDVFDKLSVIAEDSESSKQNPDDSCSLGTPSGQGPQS

[2] = molecular target: T2, mouse IL10 receptor on mouse cells (whole blood, colon) (mouse, UniProt Q61727 17-575; Q61190 20-349)
T2 sequence (looked up) 1: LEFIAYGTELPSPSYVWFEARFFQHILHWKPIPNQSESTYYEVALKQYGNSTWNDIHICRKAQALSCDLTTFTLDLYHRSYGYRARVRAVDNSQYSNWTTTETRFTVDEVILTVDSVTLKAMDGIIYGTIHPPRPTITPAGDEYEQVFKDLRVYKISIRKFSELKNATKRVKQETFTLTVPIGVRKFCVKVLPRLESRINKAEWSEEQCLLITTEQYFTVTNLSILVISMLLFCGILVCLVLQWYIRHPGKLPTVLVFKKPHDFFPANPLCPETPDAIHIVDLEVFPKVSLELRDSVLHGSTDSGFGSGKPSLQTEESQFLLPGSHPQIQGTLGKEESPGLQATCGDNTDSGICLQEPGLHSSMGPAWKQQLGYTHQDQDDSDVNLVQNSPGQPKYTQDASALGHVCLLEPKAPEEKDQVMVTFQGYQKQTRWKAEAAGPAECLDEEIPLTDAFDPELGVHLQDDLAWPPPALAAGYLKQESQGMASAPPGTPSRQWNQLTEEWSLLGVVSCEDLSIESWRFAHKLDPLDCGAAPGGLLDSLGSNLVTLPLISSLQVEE
T2 sequence (looked up) 2: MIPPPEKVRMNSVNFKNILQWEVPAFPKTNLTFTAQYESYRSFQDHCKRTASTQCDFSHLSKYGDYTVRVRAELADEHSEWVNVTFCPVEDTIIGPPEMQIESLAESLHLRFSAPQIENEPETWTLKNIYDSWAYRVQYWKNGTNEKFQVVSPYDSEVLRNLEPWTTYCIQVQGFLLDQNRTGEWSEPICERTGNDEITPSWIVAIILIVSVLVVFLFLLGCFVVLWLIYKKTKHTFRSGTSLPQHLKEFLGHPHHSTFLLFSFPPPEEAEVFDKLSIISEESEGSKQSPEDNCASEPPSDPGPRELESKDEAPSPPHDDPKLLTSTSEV

[3] = molecular target: T3, human IL10 receptor (IL10R1/R2 receptor complex) on human whole blood cells (human, UniProt Q13651 22-578; Q08334 20-325)
T3 sequence (looked up) 1: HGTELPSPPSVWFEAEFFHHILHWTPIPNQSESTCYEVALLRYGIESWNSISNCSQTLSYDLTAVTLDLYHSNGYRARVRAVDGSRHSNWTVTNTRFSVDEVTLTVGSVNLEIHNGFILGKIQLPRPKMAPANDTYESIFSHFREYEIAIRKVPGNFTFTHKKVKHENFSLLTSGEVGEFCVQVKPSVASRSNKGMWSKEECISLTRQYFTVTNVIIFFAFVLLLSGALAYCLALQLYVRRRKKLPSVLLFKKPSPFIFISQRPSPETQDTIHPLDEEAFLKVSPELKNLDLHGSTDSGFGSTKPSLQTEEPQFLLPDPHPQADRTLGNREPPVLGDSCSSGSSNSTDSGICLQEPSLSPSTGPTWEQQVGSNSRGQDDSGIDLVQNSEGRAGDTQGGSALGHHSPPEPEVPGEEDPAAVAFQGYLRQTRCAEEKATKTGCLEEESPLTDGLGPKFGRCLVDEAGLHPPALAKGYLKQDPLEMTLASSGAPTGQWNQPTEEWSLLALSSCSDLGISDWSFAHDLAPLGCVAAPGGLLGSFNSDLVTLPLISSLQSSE
T3 sequence (looked up) 2: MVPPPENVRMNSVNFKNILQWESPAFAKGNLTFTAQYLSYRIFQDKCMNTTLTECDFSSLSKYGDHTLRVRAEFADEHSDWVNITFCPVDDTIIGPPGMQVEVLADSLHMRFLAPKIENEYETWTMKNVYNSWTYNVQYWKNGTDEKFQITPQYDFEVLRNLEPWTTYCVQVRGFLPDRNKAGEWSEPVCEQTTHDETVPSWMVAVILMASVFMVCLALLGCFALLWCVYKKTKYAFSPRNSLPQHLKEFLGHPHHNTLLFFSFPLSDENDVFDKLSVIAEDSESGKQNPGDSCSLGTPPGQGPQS

B1: IgGIL10M13 (antibody)
heavy: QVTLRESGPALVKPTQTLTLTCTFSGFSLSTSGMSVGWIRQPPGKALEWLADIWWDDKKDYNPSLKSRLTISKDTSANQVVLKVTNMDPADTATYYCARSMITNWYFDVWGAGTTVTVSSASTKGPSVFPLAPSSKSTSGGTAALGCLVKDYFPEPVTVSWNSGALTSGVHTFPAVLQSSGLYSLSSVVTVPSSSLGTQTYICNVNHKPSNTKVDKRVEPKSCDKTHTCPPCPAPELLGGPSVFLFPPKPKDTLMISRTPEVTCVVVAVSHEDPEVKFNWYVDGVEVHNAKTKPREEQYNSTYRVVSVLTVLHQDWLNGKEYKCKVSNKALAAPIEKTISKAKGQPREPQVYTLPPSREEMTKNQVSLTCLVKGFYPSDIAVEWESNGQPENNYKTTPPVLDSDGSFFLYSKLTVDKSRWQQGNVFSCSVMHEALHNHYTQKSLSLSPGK
light: DIQMTQSPSTLSASVGDRVTITCKAQLSSPGQGTQSENSCTHFPGNLPNMLRDLRDAFSRVKTFFQMKDQLDNLLLKESLLEDFKGYLGCQALSEMIQFYLEEVMPQAENQDPDIKAHVNSLGENLKTLRLRLRRCHRFLPCENGGGSGGKSKAVEQVKNAFNKLQEKGIYKAMSEFDIFINYIEAYMTMKIRNVGYMHWYQQKPGKAPKLLIYDTSKLASGVPSRFSGSGSGTAFTLTISSLQPDDFATYYCFQGSGYPFTFGGGTKLEIKRTVAAPSVFIFPPSDEQLKSGTASVVCLLNNFYPREAKVQWKVDNALQSGNSQESVTEQDSKDSTYSLSSTLTLSKADYEKHKVYACEVTHQGLSSPVTKSFNRGEC
- IC50, inhibition of LPS-induced TNFα production, ex vivo cynomolgus whole blood [1]: 6.67 pM
- IC50, inhibition of LPS-induced TNFα production, ex vivo mouse whole blood [2]: 12 pM
- IC50, inhibition of LPS-induced TNFα production, ex vivo human whole blood [3]: 25.2 pM
